Results from patent publication US20260062463A1 (KANGYUAN BIOMEDICAL TECH DALIAN, published 2026).

B1: A4-052 (VHH)
VHH: VQLQESGGGLVQPGGSLRLSCAASGSIFIINTMGWYRQAPGKQRELVAAVTRGGSTNYADSVKGRFTISRDNAKNTVYLQMNSLRPEDTAVYYCHVDEVRQSSWTTSNLWGQGTQVTVSS
B2: A4-D2 (VHH)
chain: VQLQESGGGLVQAGGSLRLSCAASGRGFSINTMGWYRQAPGKQRELVAAVTRGGTTNYADSVKGRFTISRDNAKNTVYLQMNSLRPEDTAVYYCHVDEVRQSSWTTSNLWGQGTQVTVSSGGGGSGGGGSGGGGSVQLQESGGGLVQAGGSLRLSCAASGRGFSINTMGWYRQAPGKQRELVAAVTRGGTTNYADSVKGRFTISRDNAKNTVYLQMNSLRPEDTAVYYCHVDEVRQSSWTTSNLWGQGTQVTVSSGGGGSGGGGSGGGGSVQLQESGGGLVQAGGSLRLSCAASGRGFSINTMGWYRQAPGKQRELVAAVTRGGTTNYADSVKGRFTISRDNAKNTVYLQMNSLRPEDTAVYYCHVDEVRQSSWTTSNLWGQGTQVTVSSGGGGSGGGGSGGGGSVQLQESGGGLVQAGGSLRLSCAASGRGFSINTMGWYRQAPGKQRELVAAVTRGGTTNYADSVKGRFTISRDNAKNTVYLQMNSLRPEDTAVYYCHVDEVRQSSWTTSNLWGQGTQVTVSS
B3: A4-D5 (other)
chain: VQLQESGGGLVQPGGSLRLSCVASGSSFSINTMGWYRRAPGKQRELVATVTRDGSTNYANSVKGRFTISRDNAKNTVYLQMNSLRPEDTAVYYCHVDEVRQSSWTTSNLWGQGTQVTVSSGGGGSGGGGSGGGGSVQLQESGGGLVQPGGSLRLSCVASGSSFSINTMGWYRRAPGKQRELVATVTRDGSTNYANSVKGRFTISRDNAKNTVYLQMNSLRPEDTAVYYCHVDEVRQSSWTTSNLWGQGTQVTVSSGGGGSGGGGSGGGGSVQLQESGGGLVQPGGSLRLSCVASGSSFSINTMGWYRQAPGKQRELVATVTRDGSTNYANSVKGRFTISRDNAKNTVYLQMNSLRPEDTAVYYCHVDEVRQSSWTTSNLWGQGTQVTVSSGGGGSGGGGSGGGGSVQLQESGGGLVQPGGSLRLSCVASGSSFSINTMGWYRRAPGKQRELVATVTRDGSTNYANSVKGRFTISRDNAKNTVYLQMNSLRPEDTAVYYCHVDEVRQSSWTTSNLWGQGTQVTVSS

Legend:
AAV8 [1] = biological target: T1, AAV8 (adeno-associated virus 8); assay: SPR, AAV on CM5 chip
T1 construct: also called adeno-associated virus serotype 8
Protocol: AAV was amine-coupled to a CM5 sensor chip at a density of 500-800 response units (RU). Nanobodies were injected at seven concentrations (1-100 nM) with a flow rate of 45 μL/min, and chip regeneration was performed using glycine-HCl (pH 1.5).

AAV8 [2] = biological target: T2, AAV8 (adeno-associated virus 8, Assembled 60-mer capsid of VP1/VP2/VP3 (nested products of one cap gene), amine-coupled to a CM5 chip; the letters give one VP1 subunit only.); assay: SPR, AAV amine-coupled to CM5 chip
T2 construct: also called adeno-associated virus serotype 8
T2 chain: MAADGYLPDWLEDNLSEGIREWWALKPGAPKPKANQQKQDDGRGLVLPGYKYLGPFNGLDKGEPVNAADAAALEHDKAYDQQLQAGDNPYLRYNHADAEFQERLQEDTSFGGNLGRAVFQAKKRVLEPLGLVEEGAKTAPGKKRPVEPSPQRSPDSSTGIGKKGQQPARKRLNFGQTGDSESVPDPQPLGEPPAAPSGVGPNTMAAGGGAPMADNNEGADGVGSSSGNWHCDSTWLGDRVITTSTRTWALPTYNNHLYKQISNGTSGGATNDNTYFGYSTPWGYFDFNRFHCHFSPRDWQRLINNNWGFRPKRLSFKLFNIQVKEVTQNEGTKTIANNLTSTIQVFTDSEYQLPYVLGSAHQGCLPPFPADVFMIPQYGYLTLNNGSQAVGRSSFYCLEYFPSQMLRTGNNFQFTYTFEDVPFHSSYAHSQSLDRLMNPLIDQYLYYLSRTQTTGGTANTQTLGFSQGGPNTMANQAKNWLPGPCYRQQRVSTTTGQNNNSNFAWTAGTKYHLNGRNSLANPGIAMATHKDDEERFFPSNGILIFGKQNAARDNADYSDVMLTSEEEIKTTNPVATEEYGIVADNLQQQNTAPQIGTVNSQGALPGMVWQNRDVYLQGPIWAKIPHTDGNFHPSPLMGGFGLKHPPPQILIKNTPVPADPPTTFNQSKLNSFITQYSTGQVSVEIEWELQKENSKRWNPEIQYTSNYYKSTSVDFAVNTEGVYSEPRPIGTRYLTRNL

AAV9 = biological target: T3, AAV9 (adeno-associated virus 9, Assembled 60-mer capsid of VP1/VP2/VP3 (nested products of one cap gene), amine-coupled to a CM5 chip; the letters give one VP1 subunit only.); assay: SPR, AAV amine-coupled to CM5 chip
T3 construct: also called adeno-associated virus serotype 9

AAV5 = biological target: T4, AAV5 (adeno-associated virus 5, Assembled 60-mer capsid of VP1/VP2/VP3 (nested products of one cap gene), amine-coupled to a CM5 chip; the letters give one VP1 subunit only.); assay: SPR, AAV amine-coupled to CM5 chip
T4 construct: also called adeno-associated virus serotype 5

| Binder | kon (AAV8 [1]) [M⁻¹ s⁻¹] | Kd (AAV8 [2]) [nM] | koff (AAV8 [2]) [s⁻¹] | kon (AAV8 [2]) [M⁻¹ s⁻¹] | Kd (AAV9) [nM] | koff (AAV9) [s⁻¹] | kon (AAV9) [M⁻¹ s⁻¹] | Kd (AAV5) [nM] | koff (AAV5) [s⁻¹] | kon (AAV5) [M⁻¹ s⁻¹] |
| --- | --- | --- | --- | --- | --- | --- | --- | --- | --- | --- |
| B1 | 31800 | – | – | – | – | – | – | – | – | – |
| B2 | – | 0.0821 | 3.6e-06 | 43900 | 0.304 | 9e-06 | 29600 | 0.0996 | 5.7e-06 | 57200 |
| B3 | – | 0.0836 | 5e-06 | 59800 | 0.117 | 4.3e-06 | 36900 | 0.318 | 1.34e-05 | 42100 |
